{"source": "patent US20110158908A1", "about": "“CYCLOSPORIN A-BINDING PROTEIN” (Sapporo Medical University, priority 2007, published 2011)", "target": "recombinant CSABP protein (CSABP-FL) (human) (UniProt Q9H6S0)", "assay": "SPR, Biacore 3000; recombinant CSABP-FL immobilized on CM5 chip by amine coupling, CsA in PBS-8% DMSO as analyte", "data": [{"substance": "cyclosporin A (CsA) (peptide)", "values": [{"measurement": "Kd", "result": 0.12, "unit": "µM"}]}]}
